A word on the Kd: it is the constant that tells how readily two partners part at equilibrium. The low end stands for tighter binding, the high end for weaker binding. By stoichiometry N is commonly meant the number of molecules, sites or subunits per partner or assembly. A word on the KD: it is the free concentration of one partner at which half of the binding sites on the other are occupied at equilibrium, for simple one-to-one binding. A high value points to weaker binding.

The results in this text go back to doi:10.1101/2021.03.29.437455.

For test [1], the target named is PLK1 polo-box domain (PBD), PLK1 residue 345-603 (UniProt P53350). As to the kind of experiment: ITC. In general terms: Isothermal titration calorimetry measures the heat released or taken up as one component is titrated into another.
Test [2] addresses GST-EBNA2 446-474 S457A/T465V (Epstein-Barr virus) (UniProt P12978). The test is described as follows: pull-down. Particulars: remark: other sources report otherwise.
Test [3] addresses polo-like kinase 1 (PLK1) PBD, 345-603 (UniProt P53350). The test is described as follows: isothermal titration calorimetry. Conditions: reference: unphosphorylated peptide PNTSSPS; sites S379.

Regarding EBNA2 phospho-heptapeptide PNTSpSPS, in test [1], the Kd amounted to 8.19 µM and the stoichiometry N is 1.

For “histone acetylase and co-activator p300, Q09472 1-2414”, the fold change of p300 binding against wt in test [2] was 8 to 9 fold.

In turn, “EBNA2 (EBV nuclear antigen 2) (from UniProt P12978) phosphopeptide PNTSpSPS” showed a dissociation constant (KD) in test [3] of 8.19 µM.
